Among the data in paper PMC10366546 are stoichiometry N values, retold here.

Values joined by “and” are separate entries in the source; they are usually repeats but may differ in a detail not shown here. Identical values can stand only once.

The experiment addresses Ostreolysin A6 (Pleurotus ostreatus). Put plainly: high-speed atomic force microscopy; OlyA6 added (final around 0.35 uM, 5.8 ug/ml) to a d17:1/12:0-CPE/Chol (1:1) supported lipid bilayer on mica, PBS 10 mM pH 7.5, room temperature; self-assembly on the membrane.

Turning to Ostreolysin A6 (natural protein), the stoichiometry N was 6 and 2.

In general, stoichiometry N refers to the number of molecules, sites or subunits per partner or assembly.
